In experiment [1] the target is Complement C3b (human) (UniProt P01024). The experiment can be described thus: ELISA; competition; heparin-binding plates coated with 25 ug/ml human C3b alone; FH fixed at 16 nM with rFHR-5 at 7-221 nM (dimer), 2 h room temperature, 5% BSA, 100 mM NaCl, 50 mM NaOAc, pH 7.3; bound FH detected with monoclonal anti-FH; FH binding without rFHR-5 = 100%. A general note: ELISA stands for enzyme-linked immunosorbent assay.

For experiment [2] the target is unchanged. Put plainly: ELISA; competition; heparin-binding plates coated with 25 ug/ml human C3b together with 40 ug/ml kidney heparan sulfate; FH fixed at 16 nM with rFHR-5 at 7-221 nM (dimer), 2 h room temperature, 5% BSA, 100 mM NaCl, 50 mM NaOAc, pH 7.3; bound FH detected with monoclonal anti-FH; FH binding without rFHR-5 = 100%.

B1: Recombinant complement factor H-related protein 5 (natural protein)
chain: EGTLCDFPKIHHGFLYDEEDYNPFSQVPTGEVFYYSCEYNFVSPSKSFWTRITCTEEGWSPTPKCLRMCSFPFVKNGHSESSGLIHLEGDTVQIICNTGYSLQNNEKNISCVERGWSTPPICSFTKGECHVPILEANVDAQPKKESYKVGDVLKFSCRKNLIRVGSDSVQCYQFGWSPNFPTCKGQVRSCGPPPQLSNGEVKEIRKEEYGHNEVVEYDCNPNFIINGPKKIQCVDGEWTTLPTCVEQVKTCGYIPELEYGYVQPSVPPYQHGVSVEVNCRNEYAMIGNNMITCINGIWTELPMCVATHQLKRCKIAGVNIKTLLKLSGKEFNHNSRIRYRCSDIFRYRHSVCINGKWNPEVDCTEKREQFCPPPPQIPNAQNMTTTVNYQDGEKVAVLCKENYLLPEAKEIVCKDGRWQSLPRCVESTAYCGPPPSINNGDTTSFPLSVYPPGSTVTYRCQSFYKLQGSVTVTCRNKQWSEPPRCLDPCVVSEENMNKNNIQLKWRNDGKLYAKTGDAVEFQCKFPHKAMISSPPFRAICQEGKFEYPICE
Take B1: the percent of FH binding to surface C3b left at a 1:1 molar ratio of rFHR-5 and FH with Complement C3b (human) [1] is 80%. In the experiment with Complement C3b (human) [2], the percent of FH binding to surface C3b with kidney HS left at a 1:1 molar ratio of rFHR-5 and FH stood at 50%.
